Columns and labels:
Assay in all cases: FACS, 293T cells expressing CXCR4 variants
[1] = target: CXCR2/CXCR4 chimera 2442 (human) (UniProt P61073)
[2] = target: CXCR2/CXCR4 chimera 2444b (human) (UniProt P61073)
ΔN25-CXCR4 (human) = ΔN25-CXCR4 (human) (UniProt P61073)
ΔN31-CXCR4 (human) = ΔN31-CXCR4 (human) (UniProt P61073)
ΔN31-CXCR4 (human), sequence (P61073 32-352, stated change not applied): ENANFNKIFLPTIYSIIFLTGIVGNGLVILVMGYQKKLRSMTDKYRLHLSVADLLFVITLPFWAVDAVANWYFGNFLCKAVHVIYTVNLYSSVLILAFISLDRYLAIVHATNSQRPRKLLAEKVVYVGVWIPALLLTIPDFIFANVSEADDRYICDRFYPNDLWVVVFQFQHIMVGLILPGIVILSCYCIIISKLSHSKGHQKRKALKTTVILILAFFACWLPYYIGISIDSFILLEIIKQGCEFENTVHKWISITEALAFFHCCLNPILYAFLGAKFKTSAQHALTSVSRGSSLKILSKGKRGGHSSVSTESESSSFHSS

ΔN25-CXCR4 (human), sequence (P61073 26-352, stated change not applied): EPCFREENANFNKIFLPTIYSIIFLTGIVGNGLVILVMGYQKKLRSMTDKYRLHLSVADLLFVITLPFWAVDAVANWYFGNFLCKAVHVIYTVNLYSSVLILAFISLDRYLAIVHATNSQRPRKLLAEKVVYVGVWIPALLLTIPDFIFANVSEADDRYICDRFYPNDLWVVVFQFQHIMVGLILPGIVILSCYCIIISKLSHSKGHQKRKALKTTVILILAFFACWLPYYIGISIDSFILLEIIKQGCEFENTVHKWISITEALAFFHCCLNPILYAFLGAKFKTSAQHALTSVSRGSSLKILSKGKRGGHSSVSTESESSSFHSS

B1: 33-IgG1 (antibody, V domains shown)
VH: QVTLKESGGGVVQPGRSLRLSCAASGFTFTNYGLHWVRQAPGKGLEWVAVISHDGTKKYYADSVKGRFTISRDSSENTLYLQMNSLRPEDSALYYCARDGGYCSGGRCYSYGMDVWGQGTTVTVSS
VL: QSVLTQPPSASGTPGQRVTISCSGSRSNIGSNTVNWYQQLPGTAPKLLIYTNNQRPSGVPDRFSGSKSGTSASLAITGLQAEDEADYYCLSFDSSLTSYVFGTGTKVTVLG
B1 was tested, and the binding to cells expressing the variant (+%) [1] was 1.5%, the binding to cells expressing the variant (+%) [2] was 1% and the binding to cells expressing the variant (+%) (ΔN25-CXCR4 (human)) was 13%. The binding to cells expressing the variant (+%) (ΔN31-CXCR4 (human)) was 9%.

— patent US8329178B2
